Source: patent US20110111406A1 (published 2011)
Where two headings read alike, the source gives them in different places.

T1: soluble mouse IL-31 receptor (mouse, UniProt Q8K5B1 19-499)
T1 construct: Soluble form
T1 sequence (looked up): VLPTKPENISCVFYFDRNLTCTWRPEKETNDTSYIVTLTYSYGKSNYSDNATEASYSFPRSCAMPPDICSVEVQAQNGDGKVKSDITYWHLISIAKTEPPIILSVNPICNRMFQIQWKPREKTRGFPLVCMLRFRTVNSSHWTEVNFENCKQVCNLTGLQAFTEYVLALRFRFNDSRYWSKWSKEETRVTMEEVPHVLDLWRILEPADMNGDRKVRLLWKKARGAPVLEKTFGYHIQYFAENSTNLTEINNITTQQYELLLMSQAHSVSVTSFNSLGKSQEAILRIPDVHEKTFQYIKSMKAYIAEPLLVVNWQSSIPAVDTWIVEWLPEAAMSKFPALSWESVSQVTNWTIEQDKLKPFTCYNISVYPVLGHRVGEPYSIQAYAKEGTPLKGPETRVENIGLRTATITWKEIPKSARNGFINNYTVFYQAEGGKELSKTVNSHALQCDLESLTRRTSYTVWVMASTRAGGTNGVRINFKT

T2: recombinant soluble human IL-6 receptor (SR344) (human, UniProt P08887 20-344)
T2 construct: In the 'membrane-type IL-6 receptor' Biacore assays the same SR344 was biotinylated and immobilized via streptavidin; also called soluble IL-6 receptor; membrane-type IL-6 receptor (as biotinylated SR344 immobilized on the sensor chip)
T2 sequence (looked up): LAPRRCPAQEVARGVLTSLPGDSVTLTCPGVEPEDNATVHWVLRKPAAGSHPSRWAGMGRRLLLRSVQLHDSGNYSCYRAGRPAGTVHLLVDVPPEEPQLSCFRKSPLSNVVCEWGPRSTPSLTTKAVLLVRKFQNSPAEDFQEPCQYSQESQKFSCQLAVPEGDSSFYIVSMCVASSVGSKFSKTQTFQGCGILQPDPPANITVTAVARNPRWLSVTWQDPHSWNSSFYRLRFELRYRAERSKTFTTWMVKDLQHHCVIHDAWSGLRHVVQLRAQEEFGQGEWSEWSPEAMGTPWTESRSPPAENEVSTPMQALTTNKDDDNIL


Tests used:
[1] = molecular target: T1, soluble mouse IL-31 receptor; experiment: Biacore T100, soluble mouse IL-31 receptor as analyte; KD(pH 5.5)/KD(pH 7.4) compared with Anti-IL31R wild type
Experimental: Kinetic analysis of antigen-antibody reactions at pH 5.5 and pH 7.4 was carried out using Biacore T100 (GE Healthcare) for the two types of antibodies prepared as mentioned above: Anti-IL31R wild type and Anti-IL31R clone 1 (buffer: DPBS(−) (pH 7.4 or pH 5.5), 150 mM NaCl, 0.01% Tween 20, 0.02% NaN₃). The antibodies were bound to a sensor chip on which recomb-protein A/G (Pierce) was immobilized by amine coupling, and then the soluble mouse IL-31 receptor (prepared according to the method described in WO 2007/142325) adjusted to an appropriate concentration was injected therein as an analyte. All the measurements were carried out at 25° C. Association rate constants kₐ (1/Ms) and dissociation rate constants kd (1/s) were calculated using Biacore T100 Evaluation Software (GE Healthcare), and dissociation constants KD (M) were calculated based on those values (Table 16). Furthermore, the ratio of affinity at pH 5.5 and pH 7.4 was calculated for each clone to evaluate the pH-dependent binding.

[2] = molecular target: T2, recombinant soluble human IL-6 receptor …; experiment: Biacore T100, antibody captured on protein A/G, SR344 as analyte, 37C; ratio of KD at pH 5.8 to pH 7.4
Experimental: (§1) Kinetic analyses of antigen-antibody reactions at pH 5.8 and pH 7.4 were carried out using Biacore T100 (GE Healthcare) on the four antibodies: humanized PM1 antibody (WT) and H3pI/L73, CLH5/L73, and H170/L82 produced in Examples 2 and 4 (buffer: 10 mM MES (pH 7.4 or pH 5.8), 150 mM NaCl, and 0.05% Tween 20). Various antibodies were bound onto a sensor chip immobilized with recomb-protein A/G (Pierce) by amine coupling. SR344 adjusted to concentrations of 9.8 to 400 nM was injected to the chip as an analyte. […] All the measurements were carried out at 37° C. Association rate constants kₐ (1/Ms) and dissociation rate constants kd (1/s) were calculated using Biacore T100 Evaluation Software (GE Healthcare), and dissociation constants KD (M) were calculated on the basis of those values (Table 5). Moreover, the ratio of the affinities at pH 5.8 and pH 7.4 were calculated for each clone to evaluate pH-dependent binding. All the measurements were carried out at 37° C.

[3] = molecular target: T2, recombinant soluble human IL-6 receptor …; experiment: Biacore T100, SR344 as analyte; KD(pH5.8)/KD(pH7.4) compared with WT
Experimental: as §1

[4] = molecular target: T2, recombinant soluble human IL-6 receptor …; experiment: Biacore T100, integrated RU of SR344 bound over ten cycles of pH 7.4 binding and pH 5.8 exposure, 37C
Source text: Biacore (GE Healthcare) was used to evaluate that the antibodies binding at pH 7.4 and dissociating at pH 5.8 were able to bind to the antigen multiple times. The antibody to be evaluated was bound to a recomb-protein A/G (Pierce)-immobilized sensor chip by the amine coupling method, and a mobile phase of pH 7.4 was allowed to flow (step 1). SR344 solution adjusted to pH 7.4 was then allowed to flow as an analyte to bind SR344 to the antibody at pH 7.4 (step 2). This binding at pH 7.4 mimics the antigen binding in plasma. Subsequently, buffer adjusted to pH 5.8 alone (not containing SR344) was added as an analyte to expose the antigen bound to the antibody to acidic conditions (step 3). This dissociation at pH 5.8 mimics the binding state of antigen-antibody complexes in endosomes. Subsequently, step 2 was repeated. This mimics the rebinding of antibody that has been returned to plasma by FcRn to a new antigen. Subsequently, […] was repeated to expose the antibody-antigen complex to acidic conditions.
The produced pH-dependent binding clones described above were analyzed using Biacore T100 (GE Healthcare) for their ability to bind to the antigen SR344 multipe times at pH 5.8 and pH 7.4. More specifically, the analysis was carried out as follows. All the measurements were carried out at 37° C. […]

[5] = molecular target: T2, recombinant soluble human IL-6 receptor …; experiment: Biacore T100, antibody captured on protein A/G, SR344 as analyte, 37C; ratio of KD at pH 5.8 to pH 7.4; remark: listed apart in the source
Experimental: (§2) Kinetic analysis of antigen-antibody reactions at pH 7.4 and pH 5.8 was carried out using Biacore T100 (GE Healthcare) for the four types of antibodies prepared: WT-IgG1, H54/L28-IgG1, H170/L82-IgG1, and Fv4-IgG1(buffer: 10 mM MES (pH 7.4 or pH 5.8), 150 mM NaCl, 0.05% Surfactant-P20). The antibodies were bound to a sensor chip on which recomb-protein A/G (Pierce) was immobilized by amine coupling, and SR344 adjusted to an appropriate concentration was injected therein as an analyte. The association with and dissociation from SR344 of each type of antibody were observed on a real-time basis. All the measurements were carried out at 37° C. Association rate constants kₐ (1/Ms) and dissociation rate constants kd (1/s) were calculated using Biacore T100 Evaluation Software (GE Healthcare), and dissociation constants KD (M) were calculated based on those values (Table 17).

[6] = molecular target: T2, recombinant soluble human IL-6 receptor …; experiment: Biacore T100, antibody captured on protein A/G, SR344 as analyte, 37C; ratio of kd at pH 5.8 to pH 7.4
Experimental: as §2

pH-dependent binding ability relative to WT [1]	KD(pH5.8)/KD(pH7.4) [2]	pH-dependent binding (affinity ratio) relative to WT [3]	total amount of antigen bound over ten cycles relative to WT [4]	KD(pH5.8)/KD(pH7.4) [5]	kd(pH 5.8)/kd(pH 7.4) [6]	Binder
~300 times						Anti-IL31R clone 1 (antibody, human IgG1, lambda, V domains shown) VH: not shown VL: LPVLTQPPSVSVAPGQTARITCGGNNIGSKTVYWYQQEPGQAPVLVVYDDTDRPAGIPERFSGANSGNTATLTISRVEAGDEADYYCQVWDSSTDHGVFGGGTKLTVLG
	66.1	15 times	~4 times			CLH5/L73 (antibody, IgG1, V domains shown) VH: QVQLQESGPGLVKPSETLSLTCAVSGYSISHDHAWSWVRQPPGEGLEWIGHISYSGITNYNPHLKGRVTISRDTSKNQFSLKLSSVTAADTAAYYCARFLARITAHDHWGEGTLVTVSS VL: DIQMTQSPSSLSASVGDSVTITCQASQHISSHLNWYQQKPGKAPELLIYYGSHLHSGVPSRFSGSGSGTDFTFTISSLEAEDAATYYCGQGNRLPYTFGQGTKVEIE
	394	15 times	~4 times	61.9	11.4	H170/L82 (antibody, IgG1, V domains shown, expressed and purified as IgG (IgG1); also called H170/L82-IgG1) VH: QVQLQESGPGLVKPSETLSLTCAVSGHSISHHHAHSWVRQPPGEGLEWIGYISYSGITHYNPHLKGRVTISRDTSKNQFSLKLSSVTAADTAAYYCARVLARITAMDHWGEGTLVTVSS VL: DIQMTQSPSSLSASVGDSVTITCQASQDISSHLNWYQQKPGKAPELLIYYGSHLHSGVPSRFSGSGSGTDFTFTISSLEAEDAATYYCGQGNRLPYTFGQGTKVEIE
